B1: CLCN6 (parent)
chain: TGLVGLFVDFFVRLFTQLKFGVVQ
B2: FAM46C (parent)
chain: VRSRLEEAGIKVHDVRLNGSAAGH

Variants of: B1
Assay: protein stability index of a GFP-peptide fusion (GPS, HEK-293T) (PSI 1-6); higher = more stable
Settings: c terminus: a fixed tail appended
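Note: lentivirally expressed fusions sorted by FACS into six bins by GFP to DsRed ratio, PSI derived from sequencing read proportions per bin multiplied by bin number.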

Protein stability index of substitutions, site by site:
G21: I 2.94, S 3.08, N 2.38
K19: M 3.13, Q 2.89, Y 2.85, T 2.33
L6: V 2.15, T 2.71, K 2.44, Y 3.19, W 3.31, H 3.06, R 3.73, E 2.25, M 2.93
D9: L 1.86, Y 1.89, S 2.15, C 1.25, I 2.68
F7: K 1.78, N 1.84, E 4.32
Q24: A 1.66, M 1.9, R 3.77
T1: C 2.14, Y 2.82, G 2.12, F 2.1, M 1.99, V 1.7
F15: C 2.2, M 1.77, H 2.71, R 2.27
F10: H 1.61, D 2.75, S 1.8, I 2.21, A 2.34, M 1.81, N 2.32
L3: D 2.07, E 3.71, A 2.15, K 3.14, F 2.71, V 2.42, G 1.4, C 2.42, M 2.73
F20: W 2.63, L 2.96, S 3.86, E 3.61, P 2.12, A 3.03
L14: I 2.25, M 2.27, W 2.8, A 1.61
V22: L 2.5, P 2.07, F 2.6, K 2.26, T 2.18, R 2.34, S 2.33
G5: P 2.71, E 1.78, S 2.21, K 3.25, W 1.86
V23: C 2.78, W 3.3, N 2, K 2.45, L 2.92, H 1.81, Y 2.51
V4: P 2.05, Y 2.07, K 2.16
G2: D 1.64, Y 2.9, T 1.81, C 2.77
V12: G 2.11, K 1.91, Y 3.07, C 2.71, A 2.11, Q 2.52
V8: N 2.27, Q 2.05, D 2.45, E 1.38
Q17: H 2.26, I 1.79, P 2.08, A 2.38, K 2.48, Y 2.06
R13: W 2.1, G 1.54
T16: N 3.55, A 2.43, V 1.78, H 2.78, I 2.41, G 2.81, F 2.04
L18: V 1.98, M 2.48, S 2.03, G 2.21, P 2.63
F11: Q 3.25, V 2.65, D 4.03, W 2.35

Variants of: B2
Assay: as above
Settings: c terminus: a fixed tail appended

Protein stability index: each site, then its substitutions
G9: I 1.44, W 2.81, Q 3.88, M 3.15, S 3.9, V 2.88, K 2.75, T 2.97, A 2.76, R 3.88, H 4.57, L 2.26, N 3.91, C 3.03, P 3.67, Y 2.51, D 3.89
I10: R 3.41, V 4.24, C 2.89, G 4.5, M 3.78, A 3.63, S 3.9, P 4.56, T 3.78, Y 1.75, F 2.12
R2: S 4.37, E 3.85, W 2.28, A 3.04, F 2.04, H 2.4, D 4.25, Q 2.58, Y 2.95, V 2.13, G 3.36, T 3.82, L 2.34, M 2.33, C 2.3, I 2.15, P 3.89
K11: N 3.82, M 2.01, I 1.63, L 3.83, C 2.73, Q 2.74, A 3.94, T 4.08, V 2.36, S 3.76, W 2.69, E 2.89, F 1.51, G 3.13, H 1.99
V15: K 3.44, H 4.22, L 2.76, M 3.41, E 3.27, C 2.42, D 5.04, I 2.06, A 4.24, F 3.57
S3: L 1.28, H 3.76, Y 1.53, P 4.33, T 1.68, Q 1.79, N 1.77, W 2.05, F 1.69, M 1.53, K 1.37, V 1.69, G 2.91
L5: C 3.68, V 3.7, Q 5.12, Y 3.04, A 4.34, K 3.97, N 4.03, W 3.49, S 4.34, E 4.38, D 4.35, G 4.21, T 4.59, R 4
H13: I 1.03, Q 2.42, F 1.74, G 4.18, R 2.32, W 2.02, P 4.08, K 2.02, E 4.06, T 1.86, M 1.53, N 2.74, Y 1.25, A 2.98, S 1.19, D 1.02
V12: T 2.29, H 3.6, R 4.44, M 3.25, E 4.73, N 4.04, S 3.93, P 4.06, Y 3.33, G 4.04, L 2.56, W 2.77, A 3.93, F 3.04, K 4.25, I 2.67, Q 4.06
D14: Q 2.56, S 2.64, P 4.54, L 2.43, Y 2.74, W 1.62, M 1.79, E 2.4, T 2.8, H 3.04, I 1.29, C 2.33
A8: T 3.2, H 3.12, N 3.17, K 3.38, P 3.88, M 2.58, W 2.19, R 1.96, Y 1.13, E 4.46, F 1.85, I 1.66, D 4.49
E7: H 2.37, K 2.45, F 2.49, C 1.47, T 2.51, Y 2.8, W 1.99, R 3.32, G 3.06, I 2.48, P 3.78, S 2.5
R4: S 3, E 4.73, Y 1.81, H 3.26, N 2.47, K 2.27, I 2.53, G 3.25, C 2.72, A 1.2, P 4.24, T 3.71, Q 3.52, F 1.89, W 2.33
V1: T 4.25, A 3.16, E 3.44, R 4.11, P 4.38, Y 3.57, D 4.33, S 4.18, M 2.6, H 4.02, F 2.56, L 1.33, Q 4.59, K 3.62, N 3.5
E6: G 3.06, M 1.71, D 3.09, R 2.59, Q 3.22, T 2.44, W 1.64, I 2.54, Y 2.1, S 2.7, N 3.54, H 2.9, F 2.46, P 3.71

— the supplement of paper PMC10567573
